The target in the test is Acanthamoeba actin (Acanthamoeba). The test can be described thus: co-sedimentation.

The source of these data is article PMC2111966.

With Acanthamoeba actin (natural protein), the percent of soluble G-actin converted into an insoluble form is > 95%.
